How the values were obtained:
[1] = target: T1, Coagulation Factor IX (recombinant) (Homo sapiens, UniProt P00740 P00740:47-461); assay: SPR; highest affinity of the 30 core aptamers; FIX immobilized; 50 mM Tris, 10 mM CaCl2, 4 mM MgCl2, pH 7.5; settings: tags: BeneFIX (nonacog alfa, Wyeth); correctly gamma-carboxylated
Experimental: (§1) Each sample was injected sequentially onto the same chip (solid support) containing the immobilized human recombinant FIX. Controls are obtained by injecting blanks containing only run buffer. All the injections were carried out with a flow rate of 30 μl/min for 60 sec; after the injection, run buffer was injected onto the chip at an identical flow rate for 120 sec.
(§2) Elution buffer (10 mM EDTA) was then injected for 60 sec with a flow rate of 30 μl/min to uncouple the aptamer from the immobilized human FIX.
(§3) The chip makes it possible to observe in real time the formation and the disruption of interactions between the immobilized human recombinant FIX and each of the aptamers, having the sequences SEQ ID Nos. 3 and 6 to 35, tested, through surface plasmon resonance (SPR). Binding to the immobilized recombinant human FIX generates an increase in signal expressed in resonance units (RU) recorded by the apparatus (FIG. 6). These analyses are carried out with the Biacore T100 SPR apparatus (GE). The modeling of the recorded interactions is carried out by means of the Biaevaluation software (GE).

[2] = target: T1, Coagulation Factor IX (recombinant); assay: SPR; FIX immobilized; 50 mM Tris, 10 mM CaCl2, 4 mM MgCl2, pH 7.5; settings: tags: BeneFIX (nonacog alfa, Wyeth); correctly gamma-carboxylated
Experimental: as §1, §2, §3

[3] = target: Coagulation Factor VII (plasma) (Homo sapiens, UniProt P08709 P08709:61-466); assay: affinity chromatography; Ca/Mg buffer, EDTA elution; settings: tags: plasma FVII (98-99% pure; ACSET, LFB, in column tests); label: biotin
Coagulation Factor VII (plasma), sequence (P08709 61-466, one chain of several): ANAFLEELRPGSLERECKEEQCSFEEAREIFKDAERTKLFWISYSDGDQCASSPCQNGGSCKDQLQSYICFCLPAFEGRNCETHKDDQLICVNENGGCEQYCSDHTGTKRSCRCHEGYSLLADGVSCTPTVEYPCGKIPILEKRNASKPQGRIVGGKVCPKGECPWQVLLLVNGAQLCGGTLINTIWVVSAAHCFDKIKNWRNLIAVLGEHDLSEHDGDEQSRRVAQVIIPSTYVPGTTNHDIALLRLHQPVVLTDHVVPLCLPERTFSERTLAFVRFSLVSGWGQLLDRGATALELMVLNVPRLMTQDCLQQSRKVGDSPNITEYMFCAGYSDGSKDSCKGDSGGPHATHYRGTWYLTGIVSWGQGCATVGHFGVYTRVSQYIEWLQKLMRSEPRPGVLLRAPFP
Experimental: The FVII is eluted with a 20 mM Tris-HCl+10 mM EDTA buffer at pH 7.5. The elution peak is collected according to the OD profile.
In FIG. 15, the injection (1) of human plasma […] concentrate is followed rapidly by the elimination peak (2) of the fraction not retained on the affinity support. The affinity support continues to saturate with the coagulation protein of interest: complexes between (i) the anti-GLA nucleic aptamers of the affinity support and (ii) the human plasma FVII molecules initially contained in the composition to be purified were formed. After running the composition to be purified, a step of washing the column with the previously specified washing buffer is carried out. Then, the elution step is carried out by injecting the elution buffer solution comprising a final concentration of 10 mM of EDTA.

T1 sequence (P00740 47-461, one chain of several): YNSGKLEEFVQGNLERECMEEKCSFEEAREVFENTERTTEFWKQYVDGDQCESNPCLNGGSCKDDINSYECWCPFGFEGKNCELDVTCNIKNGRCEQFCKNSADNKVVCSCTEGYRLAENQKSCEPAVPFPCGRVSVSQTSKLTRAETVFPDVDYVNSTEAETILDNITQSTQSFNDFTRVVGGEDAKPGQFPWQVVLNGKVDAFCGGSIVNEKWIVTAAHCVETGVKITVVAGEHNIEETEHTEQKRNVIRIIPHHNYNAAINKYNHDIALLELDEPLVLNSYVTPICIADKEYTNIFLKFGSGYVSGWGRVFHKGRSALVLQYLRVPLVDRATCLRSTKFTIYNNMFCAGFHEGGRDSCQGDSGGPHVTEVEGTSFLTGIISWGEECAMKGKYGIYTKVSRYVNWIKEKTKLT

CGCACATGACTTGAAGTAAAACGCGAATTACAGACCAAACCCG (ssDNA) [Mapt-1.2-CS]
binding result [1]: binds

CGCACATGACTTGAAGTTAAACGCGAATTACAAACCCAGCCCCC (ssDNA) [Mapt-1 core sequence (Mapt-1-CS)]
binding result [2]: binds

CCGCACACCACGCGCATGACCCCGCGCACACGACTTGAAGTAGC (ssDNA) [Mapt-2-CS]
binding result [3]: binds
